EC50 data for one molecule are collected here from patent EP4635983A1 (Ymmunobio AG, dated 2025).

The EC50 is the concentration at which the effect is half-maximal.

Where no end group is shown, it is not given here.

Assay [1] has as its target T1, peptide (mNPTXR) representing the mouse NPTXR epitope space (mouse, also: biotinylated, position not given here).
T1 construct: Immobilized on the ELISA plate by streptavidin capture; also called Bio-mNPTXR; Strep + Bio-mNPTXR
T1 peptide: CESGLPRGLQDAGPRRDT
Nature of the assay: ELISA, biotinylated mNPTXR peptide captured by streptavidin, antibody titrated from 10 ug/ml, anti-human IgG Fc-HRP detection. A general note: An ELISA detects its analyte on a solid surface through an enzyme-linked reagent.

Assay [2] concerns the target T2, recombinant human NPTXR (rhNPTXR; Ala24 to Ala500 of Acc no. #O95502) (human, UniProt O95502 24-500).
T2 construct: range 24-500; Recombinant protein immobilized on the ELISA plate
T2 sequence (looked up): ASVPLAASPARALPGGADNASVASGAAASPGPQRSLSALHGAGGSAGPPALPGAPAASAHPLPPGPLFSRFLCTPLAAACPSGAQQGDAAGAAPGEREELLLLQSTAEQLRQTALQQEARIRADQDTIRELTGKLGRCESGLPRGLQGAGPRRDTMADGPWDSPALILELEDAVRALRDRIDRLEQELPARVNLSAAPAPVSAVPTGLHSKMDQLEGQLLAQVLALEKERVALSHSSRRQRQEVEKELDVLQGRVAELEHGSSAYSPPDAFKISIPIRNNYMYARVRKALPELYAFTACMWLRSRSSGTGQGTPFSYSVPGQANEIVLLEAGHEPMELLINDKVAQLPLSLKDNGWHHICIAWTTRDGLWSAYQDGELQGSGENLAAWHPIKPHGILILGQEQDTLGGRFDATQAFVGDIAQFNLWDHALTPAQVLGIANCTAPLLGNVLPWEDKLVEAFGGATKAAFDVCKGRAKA
The experiment in a line: ELISA, rhNPTXR immobilized on plate, antibody titrated from 10 ug/ml, anti-human IgG Fc-HRP detection.

B1: YB-800 (antibody, human IgG1, V domains shown)
VH: QVQLVQSGAEVKKPGASVKVSCKASGYTFTNYGMNWVRQAPGQRLEWMGWINTDIGEPTYSQKFQGRVTITRDTSASTAYMELSSLRSEDTAVYYCAREMDVWGQGTTVTVSS
VL: DIQMTQSPSSLSASVGDRVTITCRASQSISDYLHWYQQKPGKAPKLLIKYVSHSISGVPSRFSGSGSGTDFTLTISSLQPEDFATYYCLNGHSFPFTFGGGTKVEIK
For the molecule B1, the figures for the EC50 in assay [1] and in assay [2] were 0.0309 µg/mL and 0.0271 µg/mL, respectively.
